Laboratory results taken from the Human Domainome abundance scans (Beltran et al. 2025).
± gives the uncertainty stated by the source.

B1: Pre-mRNA-processing factor 40 homolog B, residues 274 to 332; numbered along this chain, Q6NWY9 (parent)
chain: SNREKAKQAFKELLRDKAVPSNASWEQAMKMVVTDPRYSALPKLSEKKQAFNAYKAQRE

Variants of: B1
Assay: abundance fitness (aPCA) (normalised: wild type 0, dead -1); higher = more abundant; growth selection in yeast, the domain comes from the species named
Conditions: Homo sapiens

Point of comparison: A40Q, abundance fitness -0.417 ± 0.34. Against it:
- K48I — within error, -0.047 ± 0.18
- K48W — within error, -0.532 ± 0.13
- K48Q — within error, -0.161 ± 0.12
- K48G — within error, -0.664 ± 0.077
- K48L — higher, 0.122 ± 0.08
- K48N — within error, -0.545 ± 0.16
- K48D — within error, -0.579 ± 0.14
- K48C — within error, -0.837 ± 0.23
- K48P — within error, -0.306 ± 0.13
- K48A — within error, -0.49 ± 0.076
- K48H — within error, -0.335 ± 0.2
- K48M — within error, -0.01 ± 0.12
- K48T — within error, -0.45 ± 0.1
- K48F — within error, -0.435 ± 0.21
- L44P — within error, -0.269 ± 0.084
- L44H — within error, -0.736 ± 0.17
- L44T — within error, -0.337 ± 0.12
- L44V — within error, -0.107 ± 0.077
- L44W — within error, -0.561 ± 0.089
- L44K — within error, -0.289 ± 0.11
- L44R — within error, -0.36 ± 0.062
- L44Q — within error, -0.219 ± 0.086
- L44E — higher, 0.137 ± 0.089
- L44M — within error, -0.087 ± 0.1
- L44Y — within error, -0.809 ± 0.22
- L44S — within error, -0.175 ± 0.076
- L44D — within error, -0.288 ± 0.13
- L44F — within error, -0.574 ± 0.31
- L44N — within error, -0.448 ± 0.19
- L44A — within error, -0.12 ± 0.072
- L44I — within error, -0.101 ± 0.13
- R58K — within error, 0.008 ± 0.23
- R58F — within error, -0.162 ± 0.22
- R58W — higher, 0.061 ± 0.087
- R58C — higher, 0.26 ± 0.13
- R58S — within error, -0.008 ± 0.093
- R58I — within error, -0.648 ± 0.29
- R58V — higher, 0.085 ± 0.1
- R58M — higher, 0.184 ± 0.13
- R58P — within error, -0.018 ± 0.11
- R58G — higher, 0.093 ± 0.071
- R58Y — within error, 0.1 ± 0.28
- R58L — higher, 0.212 ± 0.1
- R58A — higher, 0.188 ± 0.088
- R58D — within error, -0.244 ± 0.21
- R58Q — higher, 0.16 ± 0.12
- R58H — within error, -0.013 ± 0.27
- R58T — within error, -0.108 ± 0.14
- A40G — within error, -0.206 ± 0.14
- A40P — within error, -0.675 ± 0.23
- A40R — within error, -0.304 ± 0.13
- A40D — within error, -0.739 ± 0.34
- A40W — within error, -0.588 ± 0.18
- A40L — within error, 0.008 ± 0.12
- A40E — within error, -0.42 ± 0.19
- A40Y — within error, -0.368 ± 0.27
- A40V — within error, -0.075 ± 0.15
- A40M — within error, 0.177 ± 0.33
- A40T — within error, -0.312 ± 0.27
- A40S — within error, 0.005 ± 0.19
- A40K — within error, -0.27 ± 0.22
- Y54L — within error, -0.085 ± 0.4
- Y54E — within error, -0.363 ± 0.36
- Q57P — within error, -0.249 ± 0.071
- Q57A — higher, 0.046 ± 0.056
- Q57T — within error, -0.165 ± 0.074
- Q57E — higher, 0.248 ± 0.078
- Q57S — higher, 0.027 ± 0.059
- Q57Y — within error, -0.715 ± 0.11
- Q57V — within error, -0.257 ± 0.057
- Q57N — within error, -0.163 ± 0.092
- Q57I — within error, -0.565 ± 0.1
- Q57R — within error, -0.286 ± 0.05
- Q57L — within error, -0.527 ± 0.066
- Q57D — higher, 0.158 ± 0.097
- Q57H — within error, -0.149 ± 0.11
- Q57F — within error, -0.514 ± 0.12
- Q57C — within error, -0.156 ± 0.075
- Q57W — within error, -0.138 ± 0.066
- Q57M — within error, -0.322 ± 0.091
- S45W — within error, -0.427 ± 0.095
- S45T — within error, -0.211 ± 0.086
- S45G — within error, -0.265 ± 0.062
- S45Q — within error, -0.15 ± 0.11
- S45H — within error, -0.016 ± 0.22
- S45P — within error, -0.369 ± 0.1
- S45R — within error, -0.303 ± 0.072
- S45I — within error, -0.458 ± 0.15
- S45E — within error, -0.027 ± 0.1
- S45D — within error, -0.097 ± 0.098
- S45A — within error, -0.136 ± 0.078
- S45C — within error, -0.484 ± 0.18
- S45L — within error, -0.541 ± 0.092
- S45V — within error, -0.457 ± 0.078
- S45K — within error, -0.117 ± 0.1
- S45F — within error, -0.233 ± 0.14
- K43M — within error, -0.115 ± 0.081
- K43L — within error, -0.196 ± 0.067
- K43D — higher, 0.11 ± 0.17
- K43W — within error, -0.362 ± 0.068
- K43G — higher, 0.001 ± 0.049
- K43I — within error, -0.655 ± 0.2
- K43P — within error, -0.359 ± 0.078
- K43S — higher, 0.122 ± 0.076
- K43A — higher, -0.014 ± 0.057
- K43N — within error, -0.105 ± 0.14
- K43T — higher, 0.206 ± 0.076
- K43Q — within error, -0.091 ± 0.081
- K43C — within error, 0.037 ± 0.12
- K43H — within error, -0.335 ± 0.15
- K43F — within error, -0.593 ± 0.17
- K43Y — within error, -0.691 ± 0.25
- K43V — within error, -0.482 ± 0.063
- K43E — higher, 0.035 ± 0.075
- K43R — within error, -0.064 ± 0.049
- N52D — within error, -0.038 ± 0.12
- N52M — within error, 0.039 ± 0.18
- N52R — within error, -0.053 ± 0.066
- N52Q — within error, 0.062 ± 0.15
- N52F — within error, -0.901 ± 0.49
- N52P — within error, -0.367 ± 0.096
- N52E — higher, 0.253 ± 0.073
- N52H — within error, -0.053 ± 0.18
- N52V — within error, -0.11 ± 0.083
- N52K — within error, 0.031 ± 0.12
- N52C — within error, -0.129 ± 0.15
- N52A — within error, -0.09 ± 0.079
- N52S — within error, -0.072 ± 0.075
- N52G — within error, -0.282 ± 0.065
- N52L — within error, -0.04 ± 0.092
- N52T — within error, -0.231 ± 0.1
- N52W — within error, -0.431 ± 0.085
- N52Y — within error, -0.21 ± 0.14
- Q49H — within error, -0.407 ± 0.2
- Q49E — higher, 0.294 ± 0.1
- Q49P — within error, -0.574 ± 0.11
- Q49I — within error, -0.307 ± 0.18
- Q49L — within error, -0.386 ± 0.086
- Q49K — within error, -0.066 ± 0.2
- Q49W — within error, -0.643 ± 0.1
- Q49T — within error, -0.364 ± 0.15
- Q49D — within error, 0.021 ± 0.18
- Q49Y — within error, -0.544 ± 0.24
- Q49G — within error, -0.343 ± 0.072
- Q49S — within error, -0.162 ± 0.098
- Q49V — within error, -0.205 ± 0.087
- Q49N — within error, -0.481 ± 0.21
- Q49C — within error, -0.239 ± 0.16
- Q49A — higher, 0.112 ± 0.11
- Q49R — within error, -0.116 ± 0.074
- Q49F — within error, -0.636 ± 0.16
- A53K — within error, -0.174 ± 0.1
- A53M — within error, -0.394 ± 0.1
- A53Y — within error, -0.524 ± 0.19
- A53G — within error, -0.293 ± 0.052
- A53F — within error, -0.835 ± 0.18
- A53R — within error, -0.452 ± 0.065
- A53S — within error, -0.089 ± 0.079
- A53H — within error, -0.476 ± 0.26
- A53L — within error, -0.314 ± 0.074
- A53I — within error, -0.372 ± 0.15
- A53D — higher, 0.042 ± 0.1
- A53P — within error, -0.494 ± 0.11
- A53N — within error, -0.079 ± 0.16
- A53V — within error, -0.274 ± 0.071
- A53E — higher, 0.317 ± 0.08
